Among the data in paper PMC2605707 are stoichiometry N values, retold here.

The target in this test is RDE-4 variant R2C (dsRBM2 and C-terminus) (C. elegans). Description: SEC. In general terms: SEC sorts molecules by how far they enter the pores of the column.

A word on the stoichiometry N: it is the number of molecules, sites or subunits per partner or assembly. On to “RDE-4 variant R2C (dsRBM2 and C-terminus) (domain or fragment)”, for which the stoichiometry N was 2.
